Laboratory results reported in US11040083B2, “Polypeptides comprising vinculin binding sites for the treatment of proliferation and/or adhesion related diseases” (PARIS SCIENCES ET LETTRES—QUARTIER LATIN, priority 2015, dated 2021).
“And” between values parts separate entries of the source, which are not always exact repeats. Identical values can stand only once. Like-named read-outs stand apart in the source and are kept apart here.

T1: full-length vinculin (HV) (Homo sapiens, UniProt P18206)
T1 construct: with full-length vinculin (HV) in solid phase assays
T1 sequence (P18206 1-1066 isoform P18206-2): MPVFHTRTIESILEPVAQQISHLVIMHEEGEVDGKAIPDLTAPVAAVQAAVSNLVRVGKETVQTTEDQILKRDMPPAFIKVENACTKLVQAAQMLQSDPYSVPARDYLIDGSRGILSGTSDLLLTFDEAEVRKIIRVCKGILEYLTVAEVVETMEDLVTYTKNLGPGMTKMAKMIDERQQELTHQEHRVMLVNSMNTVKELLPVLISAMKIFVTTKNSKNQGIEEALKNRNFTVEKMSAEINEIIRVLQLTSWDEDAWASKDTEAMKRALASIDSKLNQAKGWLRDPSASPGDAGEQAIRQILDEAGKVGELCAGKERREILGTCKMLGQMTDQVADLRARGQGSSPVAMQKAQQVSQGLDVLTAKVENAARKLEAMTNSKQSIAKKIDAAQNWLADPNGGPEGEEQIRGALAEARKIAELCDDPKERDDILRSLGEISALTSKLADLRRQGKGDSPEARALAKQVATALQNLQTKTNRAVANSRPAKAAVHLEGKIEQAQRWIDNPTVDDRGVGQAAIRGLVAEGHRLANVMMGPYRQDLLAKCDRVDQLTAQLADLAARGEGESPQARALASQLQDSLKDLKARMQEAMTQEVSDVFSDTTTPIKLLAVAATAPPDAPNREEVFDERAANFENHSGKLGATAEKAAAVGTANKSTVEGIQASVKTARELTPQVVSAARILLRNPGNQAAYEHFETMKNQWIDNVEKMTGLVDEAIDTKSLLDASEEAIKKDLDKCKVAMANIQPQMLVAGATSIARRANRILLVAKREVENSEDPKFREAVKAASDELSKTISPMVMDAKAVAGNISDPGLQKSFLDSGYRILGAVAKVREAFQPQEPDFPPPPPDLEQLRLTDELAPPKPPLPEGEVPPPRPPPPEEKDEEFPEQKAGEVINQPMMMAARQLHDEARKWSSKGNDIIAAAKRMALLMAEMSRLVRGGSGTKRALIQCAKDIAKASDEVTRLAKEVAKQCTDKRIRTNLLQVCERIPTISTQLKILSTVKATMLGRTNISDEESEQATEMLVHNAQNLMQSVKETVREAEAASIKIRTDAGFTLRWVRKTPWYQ


Columns and labels:
[1] = biological target: T1, full-length vinculin (HV); experiment: ELISA solid phase binding assay; details: IpaA construct immobilized on the solid phase, HV as soluble ligand
Procedure: 96-well Maxisorp (Nunc) ELISA plates were coated with 30 nM full-length vinculin, vinculin constructs or IpaA proteins in binding buffer (25 mM Tris pH 7.4, 100 mM NaCl and 1 mM β-Mercaptoethanol). The wells were blocked with PBS-BSA 2%, washed and incubated with half series dilutions of IpaA or vinculin proteins in binding buffer+0.2% BSA at room temperature for one hour. After incubation the plates were washed and incubated with an anti-IpaA (dilution: 1/2000) polyclonal primary antibody (Tran Van Nhieu et al., 1997. EMBO J. 16(10):2717-29) or anti-vinculin (dilution: 1/2000) m11.5 monoclonal primary antibody (ref. V4505, Sigma-Aldrich) in binding buffer+0.2% BSA for one hour at room temperature. Plates were washed and incubated with an HRP-coupled secondary anti-rabbit or anti mouse Ig antibodies (dilution: 1/32000, Jackson ImmunoResearch) for one hour.

talin H1-H4 [2] = biological target: T2, talin H1-H4 (Homo sapiens, UniProt Q9Y490); experiment: Isothermal titration calorimetry; format: binding; details: 25° C.; for ΔG free enthalpy / ΔH enthalpy / −TΔS entropic contribution / Kd: ITC; for Kd: read-out: KD (affinity constant)
T2 sequence (Q9Y490 482-636): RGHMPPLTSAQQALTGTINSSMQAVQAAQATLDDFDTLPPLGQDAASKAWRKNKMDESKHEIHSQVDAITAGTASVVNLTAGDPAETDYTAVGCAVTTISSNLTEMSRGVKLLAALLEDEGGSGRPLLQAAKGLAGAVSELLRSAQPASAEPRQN
Procedure: Vinculin, IpaA proteins and peptides were extensively dialyzed in binding buffer (25 mM Tris pH 7.4, 100 mM NaCl and 1 mM β-Mercaptoethanol). The final concentration of all proteins/peptides was measured using a BCA test (Thermo Scientific). Talin-IpaA binding was measured by microcalorimetry using an ITC200 calorimeter (MicroCal) at 25° C. 200 μL of 20-100 μM of talin H1-H4 protein was added to the cell and binding in the presence of different concentrations of IpaA VBS1, VBS2 or VBS3 peptides was measured. In other experiments, 200 μL of a 16 μM equimolar mix of A483:HVD1 was incubated for one hour at room temperature prior to addition to the cell. Binding to talin H1-H4 (100 μM) was measured. Typically, 20-40 injections of 2 μL of ligand were made with intervals of 320 seconds between each addition, with a reference power of 12 μcal/sec. Data were analyzed using the MicroCal software provided by manufacturer.

[3] = Size exclusion chromatography, hydrodynamic radius; format: physicochemical; details: for Radiusm (estimated hydrodynamic radius): SEC Superdex 75, 20 μM equimolar
Procedure: The purified proteins HVD1, A483, A524 and Talin H1-H4 were used at an equimolar concentration of 20 μM and incubated at 4° C. for one hour in binding buffer. The protein mixtures (200 μL) were injected in a FPLC chromatography system (FPLC Pharmacia) at 16° C. in a Superdex 75 HR 10/30 column (GE Healthcare) previously equilibrated with 10 volumes of binding buffer. The SEC system was calibrated with a Low Molecular Weight Gel Filtration Kit (ref. 17-0442-01, GE Healthcare) and the hydrodynamic radius (Angstroms) of the reference proteins (BSA, OVA, ChyA and RibA) correlated with the elution volume (Ve) using an Euler exponential equation: Hydrodynamic radius (Ang)=210.46 e^−0.189 Ve (mL), with a correlation squared coefficient of R^2=0.9973. Fractions corresponding to elution volume 8-10 mLs were recovered, and analyzed by SDS-PAGE using 15% polyacrylamide gels.

talin H1-H4 [4] = biological target: T2, talin H1-H4; experiment: SEC-MALS; format: binding; details: 20 μM equimolar
Procedure: The purified proteins IpaA 483-633 (A483), IpaA 524-633 (A524) and Talin H1-H4 (TlnH1-H4) were used at 20 μM equimolar concentrations and incubated at 4° C. for one hour in binding buffer (25 mM Tris-HCL pH 7.0, 100 mM NaCl and 1 mM β-Mercaptoethanol). The protein mixtures (200 μL) were analyzed by size-exclusion chromatography (SEC) on a Superdex 200 10/300 GL (GE Healthcare) using a Shimadzu Prominence HPLC. Multi-angle laser light scattering (MALS) was measured with a MiniDAWN TREOS (Wyatt Technology). Refractometry was monitored using an Optilab T-rEX (Wyatt Technology).

melanocytes = experiment: Matrigel invasion assay; format: cell-based; details: 24-hour incubation, three independent experiments
Procedure: Cells were transfected by GFP-A524, GFP-A483 or Mock-transfected (without DNA, as a control).
Cells were further trypsinized, collected, and deposited in a matrigel insert. Following a 24-hour incubation, the matrigel was remove, the membrane was fixed and processed for fluorescence straining of cell nuclei with DAPI. Cells that transmigrated across the matrigel were scored (FIG. 24B).

Molecule | ligand concentration at which the saturation curve plateaus [1] [nM] | N (stoichiometry) (talin H1-H4 [2]; ITC non-linear fit) | ΔG free enthalpy (talin H1-H4 [2]) [kcal/mol] | ΔH enthalpy (talin H1-H4 [2]) [kcal/mol] | −TΔS entropic contribution (talin H1-H4 [2]) [kcal/mol] | Kd (talin H1-H4 [2]) [nM] | Radiusg (hydrodynamic radius of a globular protein with the same MW) [3] [Ang] | Radiusm/Radiusg (RH/RG ratio) [3] | Radiusm (estimated hydrodynamic radius) [3] [Ang] | complex formation with talin H1-H4 in solution (talin H1-H4 [4]) | number of cells which migrated across a matrigel (melanocytes) [cells] | Kd (talin H1-H4 [2]; listed as A483 (VBS3)) [nM]
A524: IpaA 524-633, containing only IpaA VBS1 and VBS2 (protein, listed as Shigella flexneri, A524 / IpaA (524-633), IpaA 524-633, containing only IpaA VBS1 and VBS2) KSKDITKSTTEHRINNKLKVTDANIRNYVTETNADTIDKNHAIYEKAKEVSSALSKVLSKIDDTSAELLTDDISDLKNNNDITAENNNIYKAAKDVTTSLSKVLKNINKD | 25 | 1.5 | -7.448 | -3.979 | -3.469 | 2030 | 15.36 | 1.88 | 28.93 | absence of complex formation | 96 | –
A483: amino acids 483 to 633 of SEQ ID NO: 1 (IpaA), containing IpaA VBS1, VBS2 and VBS3 (protein, listed as Shigella flexneri, A483 / IpaA (483-633)) GDTYLTRETIFEASKKVTNSLSNLISLIGTKSGTQERELQEKSKDITKSTTEHRINNKLKVTDANIRNYVTETNADTIDKNHAIYEKAKEVSSALSKVLSKIDDTSAELLTDDISDLKNNNDITAENNNIYKAAKDVTTSLSKVLKNINKD | 25 | – | -10.025 | -6.229 | -3.796 | 24.9 | 17.99 | 1.83 and 1.80 | 32.86 | compact globular complex corresponding to one talin H1-H4 dimer bound to one A483 molecule | 120 | 24.9
